What was measured:
Assay in all cases: ITC
[1] = target: mouse Rbpj core (residues 53-474) S358R variant (mouse, UniProt P31266 53-474, S358R)
[2] = target: wild-type mouse Rbpj core (residues 53-474) (mouse, UniProt P31266 53-474)
[3] = target: mouse Rbpj core (residues 53-474) F92V variant (mouse, UniProt P31266 53-474, F92V)
[4] = target: mouse Rbpj core (residues 53-474) R91G variant (mouse, UniProt P31266 53-474, R91G)

Measured: binding result

Sequence of mouse Rbpj core (residues 53-474) F92V variant (P31266 53-474 F92V): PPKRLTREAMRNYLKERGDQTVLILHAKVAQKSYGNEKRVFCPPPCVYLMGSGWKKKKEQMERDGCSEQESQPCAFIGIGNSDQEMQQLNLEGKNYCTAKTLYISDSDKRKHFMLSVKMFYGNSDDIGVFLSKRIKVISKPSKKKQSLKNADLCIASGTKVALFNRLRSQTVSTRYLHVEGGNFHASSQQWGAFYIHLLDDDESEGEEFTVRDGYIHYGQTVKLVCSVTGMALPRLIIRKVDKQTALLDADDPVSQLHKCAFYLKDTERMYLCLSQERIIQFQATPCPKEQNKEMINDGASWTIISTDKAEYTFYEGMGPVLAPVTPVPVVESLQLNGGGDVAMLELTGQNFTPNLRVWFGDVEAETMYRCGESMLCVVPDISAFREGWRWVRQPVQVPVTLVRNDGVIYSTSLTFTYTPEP
Sequence of wild-type mouse Rbpj core (residues 53-474) (P31266 53-474): as the sequence (P31266 53-474 F92V) above, with V40F counted along it
Sequence of mouse Rbpj core (residues 53-474) S358R variant (P31266 53-474 S358R): as the sequence (P31266 53-474 F92V) above, with V40F, S306R counted along it
Sequence of mouse Rbpj core (residues 53-474) R91G variant (P31266 53-474 R91G): as the sequence (P31266 53-474 F92V) above, with R39G, V40F counted along it

B1: human SHARP residues 2776-2833 (domain or fragment)
chain: RASANENSRFHPGSMPVIDDRPADAGSGAGLRVNTSEGVVLLSYSGQKTEGPQRISAK
binds: [1] | [2] | [3]

VLLSRKRRRQHGQLWFPEGFKVSEASKK [peptide consisting of residues 1754-1781 of human NOTCH1]
binds: all assays above
